“And” between values parts separate entries of the source, which are not always exact repeats. Identical values can stand only once. Square brackets hold non-standard residues; d marks the D form. Ends that are not written are not given here. dCit = NC(=O)NCCC[C@@H](N)C(=O)O; dNle = CCCC[C@@H](N)C(=O)O
Assays:
[1] = molecular target: Ac-VQIINK-NH2 (SEQ ID NO: 23) (N-terminal acetyl (Ac); C-terminal amide (NH2)); test: cell-based or functional assay
Tau40 P301L protein = Tau40 P301L protein (human); test: cell-based or functional assay

| Binder | VQIINK Inhibition IC50 [1] | IC50, Tau40 assay (ThT) (Tau40 P301L protein) |
| --- | --- | --- |
| [dL][dK][dI][dL][dI][dH][dY][dH] [lkilihyh] | 1.41 µm | – |
| [dL][dR][dL][dK][dV][dR][dW][dW] [lrlkvrww] | 0.67 µm | – |
| [dW][dL][dR][dV][dQ][dV][dK][dW] [wlrvqvkw] | 1.08 µm | – |
| [dF][dK][dL][dK][dL][dR][dW] [fklklrw] | 1.2 µm | – |
| [dF][dE][dL][dK][dL][dR][dW][dH] [felklrwh] | 1.03 µm | – |
| [dF][dR][dL][dK][dV][dR][dW][dF] [frlkvrwf] | 1.26 µm and 2.57 µm | – |
| [dL][dK][dI][dNle][dI][dH][dY] [lkiuihy] | 0.26 µm | – |
| [dW][dR][dL][dK][dV][dR][dW][dL] [wrlkvrwl] | 1.37 µm | – |
| [dL][dE][dF][dE][dL][dK][dY][dW] [lefelkyw] | 1.38 µm | – |
| [dF][dE][dL][dH][dI][dK][dW][dH] [felhikwh] | 1.29 µm | – |
| [dL][dK][dI][dR][dI][dA][dY] [lkiriay] | 1.41 µm | – |
| [dF][dK][dL][dK][dL][dW][dW] [fklklww] | 1.3 µm | – |
| [dL][dR][dL][dK][dV][dR][dW][dL] [lrlkvrwl] | 0.93 µm | – |
| [dW][dR][dL][dN][dV][dN][dW] [wrlnvnw] | 1.38 µm | – |
| [dW][dR][dL][dK][dV][dA][dW] [wrlkvaw (PEPTIDE ID NO: 248)] | – | 1.08 µM |
| [dW][dR][dI][dW][dI][dR][dY][dW] [wriwiryw] | 1.2 µm | – |
| [dW][dL][dR][dV][dQ][dV][dK][dL][dW] [wlrvqvklw] | 1.25 µm | – |
| [dL][dK][dI][dR][dI][dCit][dY] [lkirizy] | 0.76 µm | – |
| [dW][dR][dL][dR][dI][dW][dW] [wrlriww] | 1.34 µm | – |

| Binder | VQIINK Inhibition IC50 [1] | IC50, Tau40 assay (ThT) (Tau40 P301L protein) |
| --- | --- | --- |
| [dL][dR][dV][dQ][dV][dR][dL] [lrvqvrl] | 1.48 µm | – |
| [dW][dK][dL][dK][dL][dW][dW][dW] [wklklwww] | 1.44 µm | – |
| [dW][dR][dL][dK][dV][dR][dW][dE] [wrlkvrwe] | 1.54 µm | – |
| [dL][dK][dI][dR][dI][dL][dY][dH] [lkirilyh] | 1.46 µm | – |
| [dF][dK][dI][dR][dI][dK][dW][dH] [fkirikwh] | 1.3 µm | – |
| [dW][dR][dF][dH][dI][dH][dF][dY] [wrfhihfy] | 1.35 µm | – |
| [dR][dL][dK][dV][dR][dW][dW][dW] [rlkvrwww] | 1.21 µm | – |
| [dL][dK][dI][dK][dL][dR][dH][dY] [lkiklrhy (PEPTIDE ID NO: 144)] | – | 1.09 µM |
| [dF][dK][dL][dK][dL][dW][dW][dF] [fklklwwf] | 1.15 µm | – |
| [dH][dY][dH][dI][dR][dI][dK][dL] [hyhirikl] | 0.96 µm | – |
| [dW][dK][dV][dQ][dV][dR][dL][dW] [wkvqvrlw] | 0.94 µm | – |
| [dW][dR][dL][dR][dL][dR][dW] [wrlrlrw] | 1.54 µm | – |
| [dF][dH][dI][dR][dI][dR][dH][dW] [fhirirhw] | 1.1 µm | – |
| [dF][dR][dI][dK][dL][dK][dW][dH] [friklkwh] | 1.52 µm | – |
| [dL][dK][dI][dR][dI][dR][dF][dH] [lkirirfh] | 1.24 µm | – |
| [dL][dK][dI][dR][dI][dR][dY][dH] [lkiriryh] | 1.49 µm and 2.92 µm | – |
| [dF][dR][dI][dK][dI][dR][dW] [frikirw] | 1.47 µm | – |
| [dL][dK][dI][dE][dI][dH][dY] [lkieihy] | 0.65 µm | – |
| [dF][dE][dI][dR][dL][dW][dH][dH] [feirlwhh] | 1.17 µm | – |

| Binder | VQIINK Inhibition IC50 [1] | IC50, Tau40 assay (ThT) (Tau40 P301L protein) |
| --- | --- | --- |
| [dL][dE][dI][dR][dI][dH][dY] [leirihy] | 0.77 µm | – |
| [dW][dK][dV][dK][dI][dQ][dY][dH] [wkvkiqyh] | 0.75 µm | – |
| [dF][dH][dI][dH][dI][dK][dF][dH] [fhihikfh] | 1.16 µm | – |
| [dF][dR][dI][dR][dI][dH][dH][dW] [fririhhw] | 0.82 µm | – |
| [dF][dR][dL][dK][dV][dR][dW][dW] [frlkvrww] | 0.76 µm | – |
| [dW][dK][dV][dW][dV][dR][dY][dW] [wkvwvryw] | 1.53 µm | – |
| [dL][dE][dI][dK][dI][dR][dH][dW] [leikirhw] | 1.15 µm | – |
| [dL][dK][dI][dR][dI][dE][dY] [lkiriey] | 1.05 µm | – |
| [dW][dQ][dL][dK][dV][dR][dW] [wqlkvrw] | 0.97 µm | – |
| [dW][dR][dL][dR][dV][dR][dW][dW] [wrlrvrww] | 0.79 µm | – |
| [dW][dK][dV][dN][dV][dR][dL][dW] [wkvnvrlw] | 1.29 µm | – |
| [dF][dR][dL][dR][dI][dW][dW] [frlriww] | 1.4 µm | – |
| [dW][dE][dL][dK][dV][dR][dW] [welkvrw] | 0.26 µm | – |
| [dF][dR][dL][dK][dI][dR][dW] [frlkirw] | 0.69 µm | – |
| [dL][dK][dI][dY][dI][dH][dY] [lkiyihy] | 0.17 µm | – |
| [dL][dK][dI][dR][dI][dF][dY][dH] [lkirifyh] | 1.53 µm | – |
| [dW][dN][dL][dK][dV][dR][dW] [wnlkvrw] | 0.41 µm | – |
| [dF][dK][dI][dE][dL][dH][dW][dH] [fkielhwh] | 1.41 µm | – |
